The record followed here is IntAct's records for PubMed 23322602.

The assay has as its target adt2_human SLC25A5 (UniProt P05141).

Chain of Cytoplasmic protein NCK2 (Homo sapiens), O43639 R311K (O43639 whole entry R311K): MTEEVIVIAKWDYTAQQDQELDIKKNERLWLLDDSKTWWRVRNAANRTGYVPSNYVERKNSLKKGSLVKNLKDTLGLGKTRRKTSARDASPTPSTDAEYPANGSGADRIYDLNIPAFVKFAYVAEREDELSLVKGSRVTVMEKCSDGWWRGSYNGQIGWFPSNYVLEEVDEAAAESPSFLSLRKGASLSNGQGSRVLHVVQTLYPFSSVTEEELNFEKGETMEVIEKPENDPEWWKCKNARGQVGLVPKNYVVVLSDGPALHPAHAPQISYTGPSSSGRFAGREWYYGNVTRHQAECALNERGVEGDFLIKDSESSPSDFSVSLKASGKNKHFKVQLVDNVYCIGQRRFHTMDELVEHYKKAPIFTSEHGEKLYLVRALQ
Chain of adt2_human SLC25A5 (P05141 whole entry): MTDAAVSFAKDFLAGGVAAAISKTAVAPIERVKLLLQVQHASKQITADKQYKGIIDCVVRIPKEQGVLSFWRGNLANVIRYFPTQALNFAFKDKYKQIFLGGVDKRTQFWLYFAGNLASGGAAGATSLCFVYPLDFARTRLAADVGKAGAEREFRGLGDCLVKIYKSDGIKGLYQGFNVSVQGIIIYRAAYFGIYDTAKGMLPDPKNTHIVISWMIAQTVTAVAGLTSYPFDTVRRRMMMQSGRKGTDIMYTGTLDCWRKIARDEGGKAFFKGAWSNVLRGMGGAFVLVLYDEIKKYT

For “Cytoplasmic protein NCK2 (Homo sapiens), O43639 R311K”, the “effect of a mutation on the interaction” value was “disrupting interaction”.
